Test results taken from patent US20230220042A1 (SHANGHAI JIAO TONG UNIVERSITY SCHOOL OF MEDICINE, published 2023).
Substitutions are numbered along the chain they refer to. Numbers in names are those of the source.

Experiments:
Biotin-FcγRIIB (human) [1] = molecular target: Biotin-FcγRIIB (human) (UniProt P31994); test: NGS of 3T3 display library IgG2_C02 flow-sorted for FcγRIIB binding
Biotin-FcγRIIB (human) [2] = molecular target: Biotin-FcγRIIB (human) (UniProt P31994); test: NGS of 3T3 display library C2 flow-sorted for FcγRIIB binding
Biotin-FcγRIIB (human) [3] = molecular target: Biotin-FcγRIIB (human) (UniProt P31994); test: NGS of 3T3 display library Cmix flow-sorted for FcγRIIB binding
Biotin-FcγRIIB (human) [4] = molecular target: Biotin-FcγRIIB (human) (UniProt P31994); test: NGS of 3T3 display library IgG2_C01 flow-sorted for FcγRIIB binding
Biotin-FcγRIIB (human) [5] = molecular target: Biotin-FcγRIIB (human) (UniProt P31994); test: sorting of displayed Fc library on FcγRIIB, NGS
[6] = molecular target: Biotin-FcγRIIB (human FcγRIIB, Sino Biological) (human) (UniProt P31994); test: NGS after FACS sort of 3T3-displayed LibraryMix for biotin-FcγRIIB binding
[7] = molecular target: Biotin-FcγRIIB (human FcγRIIB, Sino Biological) (human) (UniProt P31994); test: flow cytometry, 3T3 cells displaying the antibody, biotin-FcγRIIB + Streptavidin-APC
[8] = molecular target: Biotin-FcγRIIB (human FcγRIIB, Sino Biological) (human) (UniProt P31994); test: NGS after FACS sort of 3T3-displayed Library4 for biotin-FcγRIIB binding
[9] = molecular target: Biotin-FcγRIIB (human FcγRIIB, Sino Biological) (human) (UniProt P31994); test: NGS after FACS sort of 3T3-displayed Library2 for biotin-FcγRIIB binding
[10] = molecular target: Biotin-FcγRIIB (human FcγRIIB, Sino Biological) (human) (UniProt P31994); test: flow cytometry, 3T3 cells displaying the antibody, biotin-FcγRIIB
Biotin-FcγRIIB (human) [11] = molecular target: Biotin-FcγRIIB (human) (UniProt P31994); test: magnetic sorting on biotin-FcγRIIB with unlabelled activating FcγRs, NGS; Library4
Biotin-FcγRIIB (human) [12] = molecular target: Biotin-FcγRIIB (human) (UniProt P31994); test: magnetic sorting on biotin-FcγRIIB with unlabelled activating FcγRs, NGS; Library2
Biotin-FcγRIIB (human) [13] = molecular target: Biotin-FcγRIIB (human) (UniProt P31994); test: magnetic sorting on biotin-FcγRIIB with unlabelled activating FcγRs, NGS; LibraryMix #3
Biotin-FcγRIIB (human) [14] = molecular target: Biotin-FcγRIIB (human) (UniProt P31994); test: magnetic sorting on biotin-FcγRIIB with unlabelled activating FcγRs, NGS; LibraryMix #4
Biotin-FcγRIIB (human) [15] = molecular target: Biotin-FcγRIIB (human) (UniProt P31994); test: FACS sorting of displayed Fc library on biotin-FcγRIIB, NGS
Biotin-FcγRIIB (human) [16] = molecular target: Biotin-FcγRIIB (human) (UniProt P31994); test: FACS sorting of displayed Fc library on biotin-FcγRIIB, NGS; reference P271G
Biotin-FcγRIIB (human) [17] = molecular target: Biotin-FcγRIIB (human) (UniProt P31994); test: FACS sorting of displayed Fc library on biotin-FcγRIIB, NGS; reference G236V
Biotin-FcγRIIB [18] = molecular target: T1, Biotin-FcγRIIB (human, UniProt P31994 43-217, limits assumed, biotin-labelled); test: FACS sorting of displayed Fc library on biotin-FcγRIIB, NGS
T1 construct: Bought, biotin-labelled; used at 1 µg/ml for staining and sorting; also called human FcγRIIB; CD32b
T1 sequence (looked up): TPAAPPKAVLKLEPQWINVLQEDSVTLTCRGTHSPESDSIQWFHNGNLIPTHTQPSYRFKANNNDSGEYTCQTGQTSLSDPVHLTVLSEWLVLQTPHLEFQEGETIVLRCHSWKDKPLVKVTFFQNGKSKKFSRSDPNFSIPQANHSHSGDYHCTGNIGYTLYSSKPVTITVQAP

Biotin-FcγRIIB [19] = molecular target: T1, Biotin-FcγRIIB; test: FACS sorting of displayed Fc library on biotin-FcγRIIB, NGS; reference S298R
Biotin-FcγRIIB [20] = molecular target: T1, Biotin-FcγRIIB; test: FACS sorting of displayed Fc library on biotin-FcγRIIB, NGS; reference P271G
Biotin-FcγRIIB [21] = molecular target: T2, Biotin-FcγRIIB (human, UniProt P31994 43-217, limits assumed, biotin label); test: NGS of 3T3 display library IgG2_C02 flow-sorted for FcγRIIB binding
T2 construct: Soluble labelled protein used to stain and sort the display cells; also called human FcγRIIB; CD32b
T2 sequence (looked up): T1 sequence (looked up)
Excerpt: Then flow cytometry is used for sorting the cells with high affinity to FcγRIIB for two to three rounds. […] IgG2_C01 is a combined mutation (Type I) library having at most 1 mutation in each of the four regions of P233-V240, V266-P271, S298-T299, and G327-I332; IgG2_C02 is a cell library made by combining the combined mutation (Type II) libraries of four regions of P233-V240, V266-P271, S298-T299 and G327-I332 together and transferring it into 3T3 cells.

Biotin-FcγRIIB [22] = molecular target: T1, Biotin-FcγRIIB; test: FACS sorting of displayed Fc library on biotin-FcγRIIB, NGS; reference S267E

“human IgG2 anti-mouse CD40 surface displayed antibody, wild-type Fc” gave a percentage after 1st sorting (Biotin-FcγRIIB (human) [1]) of 58.4%, a percentage after 2nd sorting (Biotin-FcγRIIB (human) [1]) of 47.8% and a percentage before sorting (Biotin-FcγRIIB (human) [1]) of 56.6%. For the same molecule, the percentage after 1st sorting (Biotin-FcγRIIB (human) [2]) was 2.51%, the percentage after 2nd sorting (Biotin-FcγRIIB (human) [2]) was 5.25% and the percentage after 3rd sorting (Biotin-FcγRIIB (human) [2]) was 12.6%. For the same molecule, the percentage before sorting (Biotin-FcγRIIB (human) [2]) was 8.97%, the percentage after 1st sorting (Biotin-FcγRIIB (human) [3]) was 1.32% and the percentage after 2nd sorting (Biotin-FcγRIIB (human) [3]) was 1.03%. The percentage after 3rd sorting (Biotin-FcγRIIB (human) [3]) was 0.4%, the percentage before sorting (Biotin-FcγRIIB (human) [3]) was 1.07% and the percentage after 1st sorting (Biotin-FcγRIIB (human) [4]) was 61.6%. It also gave a percentage after 2nd sorting (Biotin-FcγRIIB (human) [4]) of 54.2% and a percentage before sorting (Biotin-FcγRIIB (human) [4]) of 63.8%.

“human IgG2 anti-mouse CD40 surface displayed antibody, Fc mutant G236D” gave an Enrichment factor (percentage after sorting/percentage before sorting) (Biotin-FcγRIIB (human) [5]) of 0.84.

In the case of “human IgG2 anti-mouse CD40 surface displayed antibody, P271G/G236V”, the Enrichment factor (percentage after sorting/percentage before sorting) [6] is reported as 10.3 and the Increased factor (enrichment factor/wild-type enrichment factor) [6] is reported as 13.7.

For “human IgG2 anti-mouse CD40 surface displayed antibody (wild-type Fc)”, the Enrichment factor (percentage after sorting/percentage before sorting) [6] was 0.75, the proportion of the cells binding to FcγRIIB [7] was 0.34% and the Enrichment factor (percentage after sorting/percentage before sorting) [8] was 1.49. For the same molecule, the Enrichment factor (percentage after sorting/percentage before sorting) [9] was 0.57 and the proportion of the cells capable of binding to FcγRIIB [10] was 0.23%.

Work on “human IgG2 anti-mouse CD40 surface displayed antibody (wild-type IgG2 Fc)” yielded an Enrichment factor (percentage after sorting/percentage before sorting) (Biotin-FcγRIIB (human) [11]) of 0.88, a Percentage after sorting/unbinding percentage (Biotin-FcγRIIB (human) [11]) of 0.85 and a Percentage before sorting/unbinding percentage (Biotin-FcγRIIB (human) [11]) of 0.97. It also gave an Enrichment factor (percentage after sorting/percentage before sorting) (Biotin-FcγRIIB (human) [12]) of 0.83, a Percentage after sorting/unbinding percentage (Biotin-FcγRIIB (human) [12]) of 0.58 and a Percentage before sorting/unbinding percentage (Biotin-FcγRIIB (human) [12]) of 0.7. The Enrichment factor (percentage after sorting/percentage before sorting) (Biotin-FcγRIIB (human) [13]) was 1.13, the Percentage after sorting/unbinding percentage (Biotin-FcγRIIB (human) [13]) was 1.06 and the Percentage before sorting/unbinding percentage (Biotin-FcγRIIB (human) [13]) was 0.94. For the same molecule, the Enrichment factor (percentage after sorting/percentage before sorting) (Biotin-FcγRIIB (human) [14]) was 0.94, the Percentage after sorting/unbinding percentage (Biotin-FcγRIIB (human) [14]) was 0.95 and the Percentage before sorting/unbinding percentage (Biotin-FcγRIIB (human) [14]) was 1.01.

“human IgG2 anti-mouse CD40 surface displayed antibody, Fc mutant S298A” showed an Enrichment factor (percentage after sorting/percentage before sorting) (Biotin-FcγRIIB (human) [5]) of 0.92.

Work on “human IgG2 anti-mouse CD40 surface displayed antibody, Fc mutant P271G/G236V” yielded an Enrichment factor (after/before sorting) (Biotin-FcγRIIB (human) [15]) of 10.3, an Increased factor a (enrichment factor/wild-type enrichment factor) (Biotin-FcγRIIB (human) [15]) of 13.7 and an Increased factor 2 c Site 1 (combined/point mutation) (Biotin-FcγRIIB (human) [16]) of 2.9. The Increased factor 2 c Site 2 (combined/point mutation) (Biotin-FcγRIIB (human) [17]) was 30.5.

B1: human IgG2 anti-mouse CD40 surface displayed antibody, Fc mutant P271A/S298R (antibody, name in EU numbering)
light chain (with the P2A rest): DTVLTQSPALAVSPGERVTISCRASDSVSTLMHWYQQKPGQQPKLLIYLASHLESGVPARFSGSGSGTDFTLTIDPVEADDTATYYCQQSWNDPWTFGGGTKLELKRTVAAPSVFIFPPSDEQLKSGTASVVCLLNNFYPREAKVQWKVDNALQSGNSQESVTEQDSKDSTYSLSSTLTLSKADYEKHKVYACEVTHQGLSSPVTKSFNRGECGSGATNFSLLKQAGDVEENPG
heavy chain: EVQLVESDGGLVQPGRSLKLPCAASGFTFSDYYMAWVRQAPTKGLEWVASISYDGSSTYYRDSVKGRFTISRDNAKSTLYLQMDSLRSEDTATYYCGRHSSYFDYWGQGVMVTVSSASTKGPSVFPLAPCSRSTSESTAALGCLVKDYFPEPVTVSWNSGALTSGVHTFPAVLQSSGLYSLSSVVTVPSSNFGTQTYTCNVDHKPSNTKVDKTVERKCCVECPPCPAPPVAGPSVFLFPPKPKDTLMISRTPEVTCVVVDVSHEDAEVQFNWYVDGVEVHNAKTKPREEQFNRTFRVVSVLTVVHQDWLNGKEYKCKVSNKGLPAPIEKTISKTKGQPREPQVYTLPPSREEMTKNQVSLTCLVKGFYPSDIAVEWESNGQPENNYKTTPPMLDSDGSFFLYSKLTVDKSRWQQGNVFSCSVMHEALHNHYTQKSLSLSPGKLEPPPSTVSNMATVAVLVVLGAAIVTGAVVAFVMKMRRRNTGGKGGDYALAPGSQTSDLSLPDCKVMVHDPHSLA
notes: as m1; positions are Eu numbers; copies: 2 + 2
With B1 the “Enrichment factor (after/before sorting)” value (Biotin-FcγRIIB [18]) was 2.45, the “Increased factor a (enrichment factor/wild-type enrichment factor)” value (Biotin-FcγRIIB [18]) was 3.27 and the “Increased factor 2 c Site 2 (combined/point mutation)” value (Biotin-FcγRIIB [19]) was 4.2.

B2: human IgG2 anti-mouse CD40 surface displayed antibody, Fc mutant P271G/S298R (antibody, name in EU numbering)
light chain (with the P2A rest): B1 light chain (with the P2A rest)
heavy chain: B1 heavy chain with A266G
notes: as for B1
In the case of B2, the “Enrichment factor (after/before sorting)” value (Biotin-FcγRIIB [18]) is reported as 16, the “Increased factor a (enrichment factor/wild-type enrichment factor)” value (Biotin-FcγRIIB [18]) is reported as 21.4 and the “Increased factor 2 c Site 1 (combined/point mutation)” value (Biotin-FcγRIIB [20]) is reported as 4.5. The “Increased factor 2 c Site 2 (combined/point mutation)” value (Biotin-FcγRIIB [19]) was 27.4.

B3: human IgG2 anti-mouse CD40 surface displayed antibody, S267E/H268S/E269D (antibody, name in EU numbering)
light chain (with the P2A rest): B1 light chain (with the P2A rest)
heavy chain: B1 heavy chain with S262E, H263S, E264D, A266P, R293S
notes: As m1 with the Fc mutations
In the case of B3, the “enrichment factor, percentage after 1st sorting/percentage before sorting” value (Biotin-FcγRIIB [21]) is reported as 80.5 ratio, the “enrichment factor, percentage after 2nd sorting/percentage after 1st sorting” value (Biotin-FcγRIIB [21]) is reported as 83.7 ratio and the “enrichment factor, percentage after 2nd sorting/percentage before sorting” value (Biotin-FcγRIIB [21]) is reported as 6730 ratio. The “increased factor, mutant enrichment factor/wild-type enrichment factor” value (Biotin-FcγRIIB [21]) was 7970 ratio.

B4: human IgG2 anti-mouse CD40 surface displayed antibody, Fc mutant S267E/S298R (antibody, name in EU numbering)
light chain (with the P2A rest): B1 light chain (with the P2A rest)
heavy chain: B1 heavy chain with S262E, A266P
notes: as for B1
For B4, the “Enrichment factor (after/before sorting)” value (Biotin-FcγRIIB [18]) was 32.8, the “Increased factor a (enrichment factor/wild-type enrichment factor)” value (Biotin-FcγRIIB [18]) was 43.8 and the “Increased factor 2 c Site 1 (combined/point mutation)” value (Biotin-FcγRIIB [22]) was 1.5. The “Increased factor 2 c Site 2 (combined/point mutation)” value (Biotin-FcγRIIB [19]) was 56.2.
